Values belong to the molecule of their own block, whether it stands above or below them.
Assays:
[1] = Phosphatase coupled kinase assay, ERK1 specific activity; assay type: biochemical; conditions: 4 mM ATP, 4 mM MBP peptide
Procedure: (§1) The kinase reactions were carried out in 50 μL of kinase assay buffer including 25 mM Tris, 150 mM NaCl, 5 mM MgCl2, and 5 mM CaCl2 at pH 7.5 in a 96 well plate at room temperature. Each reaction was stopped with 30 μL of Malachite Reagent A and 100 μL of water. The color was developed with 30 μL Malachite Reagent B. The plate was read at 620 nm with a multi-well plate reader. If the predicted phosphate content in the reaction was above 4,000 pmol, the reaction was diluted before phosphate detection.
A series of reactions were performed with extracellular signal-regulated kinase 1 (ERK1) as the kinase. Various amounts of ERK1 (0, 0.1, 0.2, 0.4 and 0.8 μg) were combined with 4 mM ATP, 4 mM MBP peptide acceptor substrate, and 0.2 μg CD39L2. […] The reactions were stopped after 20 minutes, the Malachite Green assay was performed as described above, and the OD was measured at 620 nm. The results are shown in FIG. 10, wherein the OD reading is plotted against the quantity of ERK1. This plot was then used to determine the specific activity of ERK1. The specific activity was calculated by first determining the slope of the curve (0.7728 OD/μg), which was then multiplied by a conversion factor (4081 pmol/OD) and divided by the reaction time (20 minutes) (0.7728 OD/μg×4081 pmol/OD/20 min=157.69 pmol/min/μg). The coupling efficiency of rhCD39L2 in 4 mM ATP was predicted to be 0.4 based on the data of Example 3 (FIG. 5). The specific activity of the ERK1 was then adjusted for the coupling efficiency and was calculated to be 394.22 pmol/min/μg. (157.69 pmol/min/μg/0.4=394.22 pmol/min/μg)

[2] = ADP hydrolysis curve with increasing amounts of phosphatase, free phosphate by Malachite Green; assay type: biochemical; conditions: 5 minutes
Excerpt: The relative activity of the phosphatase on ADP and ATP can be measured by creating hydrolysis curves for ADP and ATP. For example, such hydrolysis curves may be created by performing a series of reactions separately combining set quantities of ADP or ATP with varying quantities of phosphatase and detecting the free phosphate produced. An example of such curves is described in Example 1 below. The resulting phosphate levels (or OD readings, which directly correspond to the phosphate levels) can be plotted against the amount of phosphatase used. The phosphate level or OD readings can be compared at the same quantity of the phosphatase to determine the relative activity of the phosphatase for ADP as compared to ATP. […] The amount of phosphatase to be used for kinase reactions is preferably selected from within the rapidly rising portion of the ADP hydrolysis curve. In addition, the relative activity of the phosphatase for ADP versus ATP is preferably compared within this rapidly rising portion of the hydrolysis curve, at or near the steepest portion of the curve. At phosphatase levels below this range, the generated signals are weak, while at phosphatase levels above this range, the ADP hydrolysis approaches completion, which could underestimate the activity of the phosphatase on ADP due to exhaustion of the substrate.
as §1
In this experiment, the relative activity of rhCD39L2 on ADP and ATP was determined. In a first series of reactions, 100 nmol of 2 mM ATP was combined with increasing amounts of rhCD39L2 (0.03125 μg, 0.0625 μg, 0.125 μg, 0.25 μg, 0.5 μg) for 20 minutes. Likewise in a second series of reactions, 100 nmol of 2 mM ADP was combined with the same increasing amounts of rhCD39L2 for 20 minutes. The reactions were stopped after 20 minutes and free phosphate was measured using the Malachite Green assay as described above.
The relative activity of recombinant mouse CD 39L2 (rmCD39L2) on ADP and ATP was determined in a series of reactions similar to Example 1. 100 nmol of 2 mM ATP was combined with increasing amounts of rmCD39L2 (0.03125 μg, […], 0.125 0.25 μg, 0.5 μg). Likewise in a second series of reactions, 100 nmol of 2 mM ADP was combined with the same increasing amounts of rmCD39L2. The reactions were stopped after 5 minutes and free phosphate was measured using the Malachite Green assay as described above.
The experiment of Example 1 was repeated using recombinant human CD39L4 (rhCD39L4). 100 nmol of ATP (2 mM) was combined with increasing amounts of rhCD39L4 (0.03125 μg, 0.0625 μg, 0.125 μg, 0.25 μg, 0.5 μg, 1.0 μg). Likewise in a second series of reactions, 100 nmol of ADP (2 mM) was combined with the same increasing amounts of rhCD39L4 for 5 minutes. The reactions were stopped after 5 minutes and free phosphate was measured using the Malachite Green assay as described above. […] As such, the necessary preference of the phosphatase for ADP as compared to ATP is present.

[3] = enzyme as obtained from R&D Systems; cited from earlier work
[4] = Specific activity of the phosphatase (free phosphate released per time per amount); assay type: biochemical
Excerpt: Phosphatases used in embodiments of the invention have a high specific activity on ADP. The specific activity of the phosphatase used in the examples is the amount of free phosphate released from a substrate per unit time and per amount of phosphatase under a given set of conditions, and may be determined at the rising phase of an enzymatic dose curve, such as the hydrolysis curve as described above. In some embodiments, the phosphatase has a specific activity of greater than 100 pmol/min/μg under optimal conditions. The conditions may include optimal pH, salt concentrations, and the presence of any cofactor. In other embodiments, the phosphatase has a specific activity of greater than 1,000 pmol/min/μg. In still other embodiments, the phosphatase has a specific activity of greater than 20,000 pmol/min/μg. When phosphatases having lower specific activity are used, larger amounts of such phosphatases or longer reaction times may be used to achieve the same level of hydrolysis as can be achieved with a phosphatase having higher specific activity.

slope of the curve OD versus quantity of ERK1 ([1]; 0.2 μg CD39L2, 20 minutes): 0.7728 OD/μg
Molecule: ERK1: extracellular signal-regulated kinase 1 from R&D Systems
specific activity before coupling efficiency adjustment ([1]; 20 minutes): 157.69 pmol/min/µg
specific activity adjusted for the coupling efficiency ([1]; coupling efficiency 0.4): 394.22 pmol/min/µg

times greater activity with ADP than with ATP ([2]; phosphatase at 0.25 μg): 30-40 times
B1: rmCD39L2: recombinant mouse CD39L2 phosphatase (protein, UniProt Q3U0P5 1-455, looked up)
Ectonucleoside triphosphate …: MRKIPNHGTLRMTKVAYPLGLCVGLFIYVAYIKWHRASAAQAFFTIAGAASGARWTQQAFSSPGSAARGHEVFYGIMFDAGSTGTRIHVFQFARPPGETPTLTHETFKALKPGLSAYADDVEKSAQGIQELLNVAKQHIPYDFWKATPLVLKATAGLRLLPGEKAQKLLQKVKEVFKASPFLVGDDCVSIMNGTDEGVSAWITVNFLTGSLKTPGSSSVGMLDLGGGSTQITFLPRVEGTLQASPPGHLTALQMFNRTYKLYSYSYLGLGLMSARLAILGGVEGKPAENDKELVSPCLSPRFRGEWEHAEVTYRISGQKAVGLYELCASRVSEVLRNKVHRTEEAQHVDFYAFSYYYDLAASFGLIDAEKGGSLVVGDFEIAAKYVCRTLETQPPSSPFACMDLTYISLLLHEFGFPGDKVLKLARKIDNVETSWALGAIFHYIDSLKRQKVPAL
specific activity [3]: > 100,000 pmol/min/μg

level of activity compared with rhCD39L2 ([2]; Example 9, up to 1.0 μg): lower level of activity than rhCD39L2
B2: rhCD39L4: recombinant human CD39L4 phosphatase (protein, UniProt O75356 25-428, looked up)
Nucleoside diphosphate …: NQQTWFEGIFLSSMCPINVSASTLYGIMFDAGSTGTRIHVYTFVQKMPGQLPILEGEVFDSVKPGLSAFVDQPKQGAETVQGLLEVAKDSIPRSHWKKTPVVLKATAGLRLLPEHKAKALLFEVKEIFRKSPFLVPKGSVSIMDGSDEGILAWVTVNFLTGQLHGHRQETVGTLDLGGASTQITFLPQFEKTLEQTPRGYLTSFEMFNSTYKLYTHSYLGFGLKAARLATLGALETEGTDGHTFRSACLPRWLEAEWIFGGVKYQYGGNQEGEVGFEPCYAEVLRVVRGKLHQPEEVQRGSFYAFSYYYDRAVDTDMIDYEKGGILKVEDFERKAREVCDNLENFTSGSPFLCMDLSYITALLKDGFGFADSTVLQLTKKVNNIETGWALGATFHLLQSLGISH
specific activity on ADP [4]: > 1,000 pmol/min/μg

— patent US20140080161A1, “PHOSPHATASE COUPLED KINASE ASSAY” (RESEARCH AND DIAGNOSTIC SYSTEMS, INC., priority 2010, published 2014)
